Results as given in patent publication US9096835B2, “DNA polymerase” (Medical Research Council, priority 2003, dated 2015).

Tested on: template containing a single 5-nitroindole
Assay: 5NI replication assay
Type: biochemical
Settings: primer extension, 60° C.
Procedure: Primer 26 was ^32P-labeled and annealed to template primer 27 (containing a single 5-nitroindole) in 1× Taq buffer, 0.1 or 0.5 U of the polymerase was added and reactions incubated at 60° C. for 15 mins, after which 40 μM of each dNTP were added and incubation at 60° C. continued for various times.

B1: M1: Taq mutant G84A, D144G, K314R, E520G, F598L, A608V, E742G; SEQ ID NO: 1 (protein)
chain: MRGMLPLFEPKGRVLLVDGHHLAYRTFHALKGLTTSRGEPVQAVYGFAKSLLKALKEDGDAVIVVFDAKAPSFRHEAYGGYKAARAPTPEDFPRQLALIKELVDLLGLARLEVPGYEADDVLASLAKKAEKEGYEVRILTADKGLYQLLSDRIHVLHPEGYLITPAWLWEKYGLRPDQWADYRALTGDESDNLPGVKGIGEKTARKLLEEWGSLEALLKNLDRLKPAIREKILAHMDDLKLSWDLAKVRTDLPLEVDFAKRREPDRERLRAFLERLEFGSLLHEFGLLESPKALEEAPWPPPEGAFVGFVLSRREPMWADLLALAAAAGGRVHRAPEPYKALRDLKEARGLLAKDLSVLALREGLGLPPGDDPMLLAYLLDPSNTTPEGVARRYGGEWTEEAGERAALSERLFANLWGRLEGEERLLWLYREVERPLSAVLAHMEATGVRLDVAYLRALSLEVAEEIARLEAEVFRLAGHPFNLNSRDQLERVLFDELGLPAIGKTEKTGKRSTSAAVLGALREAHPIVEKILQYRELTKLKSTYIDPLPDLIHPRTGRLHTRFNQTATATGRLSSSDPNLQNIPVRTPLGQRIRRAFIAEEGWLLVVLDYSQIELRVLAHLSGDENLIRVFQEGRDIHTETASWMFGVPREAVDPLMRRAAKTINFGVLYGMSAHRLSQELAIPYEEAQAFIERYFQSFPKVRAWIEKTLEEGRRRGYVETLFGRRRYVPDLEARVKSVRGAAERMAFNMPVQGTAADLMKLAMVKLFPRLEEMGARMLLQVHDELVLEAPKERAEAVARLAKEVMEGVYPLAVPLEVEVGIGEDWLSAKE
modifications: Mutant Thermus aquaticus DNA polymerase
bypass of template strand 5NI: efficiently bypass template strand 5NI

B2: M4: Taq mutant D58G, R74P, A109T, L245R, R343G, G370D, E520G, N583S, E694K, A743P; SEQ ID NO 2 (protein)
chain: MRGMLPLYEPKGRVLLVDGHHLAYRTFHALKGLTTSRGEPVQAVYGFAKSLLKALKEGGDAVIVVFDAKAPSFPHEAYGGYKAGRAPTPEDFPRQLALIKELVDLLGLTRLEVPGYEADDVLASLAKKAEKEGYEVRILTADKDLYQLLSDRIHVLHPEGYLITPAWLWEKYGLRPDQWADYRALTGDESDNLPGVKGIGEKTARKLLEEWGSLEALLKNLDRLKPAIREKILAHMDDLKLSWDRAKVRTDLPLEVDFAKRREPDRERLRAFLERLEFGSLLHEFGLLESPKALEEAPWPPPEGAFVGFVLSRKEPMWADLLALAAARGGRVHRAPEPYKALGDLKEARGLLAKDLSVLALREGLGLPPDDDPMLLAYLLDPSNTTPEGVARRYGGEWTEEAGERAALSERLFANLWGRLEGEERLLWLYREVERPLSAVLAHMEATGVRLDVAYLRALSLEVAEEIARLEAEVFRLAGHPFNLNSRDQLERVLFDELGLPAIGKTEKTGKRSTSAAVLGALREAHPIVEKILQYRELTKLKSTYIDPLPDLIHPRTGRLHTRFNQTATATGRLSSSDPNLQSIPVRTPLGQRIRRAFIAEEGWLLVALDYSQIELRVLAHLSGDENLIRVFQEGRDIHTETASWMFGVPREAVDPLMRRAAKTINFGVLYGMSAHRLSQELAIPYEEAQAFIKRYFQSFPKVRAWIEKTLEEGRRRGYVETLFGRRRYVPDLEARVKSVREPAERMAFNMPVQGTAADLMKLAMVKLFPRLEEMGARMLLQVHDELVLEAPKERAEAVARLAKEVMEGVYPLAVPLEVEVGIGEDWLSAKE
modifications: Mutant Thermus aquaticus DNA polymerase
bypass of template strand 5NI: efficiently bypass template strand 5NI
